The source of these data is paper PMC6650547 (2019).

The target in the test is T1, His-SUDV-NP(34-367) (Sudan virus (SUDV), strain Boniface, UniProt Q9QP77 34-367).
T1 chain: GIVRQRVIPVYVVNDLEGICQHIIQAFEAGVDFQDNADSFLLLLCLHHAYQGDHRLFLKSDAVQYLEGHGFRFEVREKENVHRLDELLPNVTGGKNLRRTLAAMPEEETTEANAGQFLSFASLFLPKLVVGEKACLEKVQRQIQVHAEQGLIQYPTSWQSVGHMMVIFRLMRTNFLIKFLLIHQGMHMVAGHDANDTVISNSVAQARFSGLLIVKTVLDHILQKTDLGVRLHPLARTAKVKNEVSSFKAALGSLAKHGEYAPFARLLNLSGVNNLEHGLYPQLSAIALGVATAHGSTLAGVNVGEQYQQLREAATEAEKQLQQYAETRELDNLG
In words: BLI. (In BLI a coated tip is dipped into the sample, and binding shifts an interference pattern.)

The koff is the rate constant with which the complex falls apart. A higher koff goes with fast dissociation. As for MQQDRTYRHHGPEVSGWFSEQLMTGKIPLTEVFV [SUDV VP35 wild-type chaperone domain peptide (residues 1 to 34)], the off-rate constant (koff) worked out at 0.00583 s⁻¹.
